Laboratory results as given in publication PMC3903617 (PLoS ONE, 2014).

How the values were obtained:
Conditions in all cases: both partners purified
[1] = biological target: T1, monocyte chemo-attractant protein-1 (MCP-1) (Homo sapiens (Human)., UniProt P13500); test: SPR; temperature dependence of KD, van't Hoff approximation; MCP-1 immobilised, scFv injected
T1 construct: MCP-1 (monocyte chemo-attractant protein-1), chemokine; synthetic gene optimised for E. coli in pET26b; Probably the mature human chemokine, as in PDB 2BDN; also called monocyte chemotactic protein-1; antigen; source: E. coli Rosetta2 (DE3), purified (Ni-NTA, SEC)

[2] = biological target: T1, monocyte chemo-attractant protein-1 …; test: SPR; Biacore T200; MCP-1 immobilised on a CM5 chip by amine coupling (~220 RU), scFv injected at 30 µl/min; PBS with 0.005% Tween-20; 25°C; global fit, 1:1 Langmuir model; KD from koff/kon
[3] = biological target: T1, monocyte chemo-attractant protein-1 …; test: SPR; ionic strength series: MCP-1 immobilised, scFv injected; running buffer with 500 mM NaCl; 25°C
[4] = biological target: T1, monocyte chemo-attractant protein-1 …; test: SPR; ionic strength series: MCP-1 immobilised, scFv injected; running buffer with 137 mM NaCl; 25°C

dH [1] [kcal/mol] | Kd [2] [nM] | koff [2] [s⁻¹] | kon [2] [M⁻¹ s⁻¹] | Kd [3] [nM] | Kd [4] [nM] | kon [4] [M⁻¹ s⁻¹] | Binder
-7.3 | 0.8 | 0.0001 | 140000 |  |  |  | wild-type 11K2 scFv (scFv, V domains shown, VH of antibody 11K2; also the variable domain of the heavy chain of the 11K2 Fab in PDB 2BDN; linker of the scFv; VL of antibody 11K2; also the variable domain of the light chain of the 11K2 Fab in PDB 2BDN; also called WT; scFv 11K2) VH: EVQLQQSGAELVKAGASVKLSCPASGLNIKDTYMHWVKQRPEQGLEWIGRIDPANGNTKFDPKFQGKATITADTSSNTAYLQLSSLTSEDTAVYYCARGVFGFFDYWGQGTTLTVSS VL: DIQMTQSSSSFSVSLGDRVTITCKATEDIYNRLAWYQQKPGSAPRLLISGATSLETGVPSRFSGSGSGKDYTLSITSLQTEDVATYYCQQFWSAPYTFGGGTKLEIK
-14.5 | 0.25 | 2.6e-05 | 100000 |  |  |  | 11K2 scFv mutein L-T56E (scFv, V domains shown, PDB 2BDN heavy chain; PDB 2BDN light chain) with the stated change) VH: EVQLQQSGAELVKAGASVKLSCPASGLNIKDTYMHWVKQRPEQGLEWIGRIDPANGNTKFDPKFQGKATITADTSSNTAYLQLSSLTSEDTAVYYCARGVFGFFDYWGQGTTLTVSS VL: DIQMTQSSSSFSVSLGDRVTITCKATEDIYNRLAWYQQKPGSAPRLLISGATSLEEGVPSRFSGSGSGKDYTLSITSLQTEDVATYYCQQFWSAPYTFGGGTKLEIK
 | 5 | 0.00015 | 30000 |  |  |  | 11K2 scFv mutein H-D31E (scFv, V domains shown, PDB 2BDN heavy chain) with the stated change; PDB 2BDN light chain)) VH: EVQLQQSGAELVKAGASVKLSCPASGLNIKETYMHWVKQRPEQGLEWIGRIDPANGNTKFDPKFQGKATITADTSSNTAYLQLSSLTSEDTAVYYCARGVFGFFDYWGQGTTLTVSS VL: DIQMTQSSSSFSVSLGDRVTITCKATEDIYNRLAWYQQKPGSAPRLLISGATSLETGVPSRFSGSGSGKDYTLSITSLQTEDVATYYCQQFWSAPYTFGGGTKLEIK
 | 2.5 | 0.00031 | 130000 |  |  |  | 11K2 scFv mutein L-Y30K (scFv, V domains shown, PDB 2BDN heavy chain; PDB 2BDN light chain) with the stated change) VH: EVQLQQSGAELVKAGASVKLSCPASGLNIKDTYMHWVKQRPEQGLEWIGRIDPANGNTKFDPKFQGKATITADTSSNTAYLQLSSLTSEDTAVYYCARGVFGFFDYWGQGTTLTVSS VL: DIQMTQSSSSFSVSLGDRVTITCKATEDIKNRLAWYQQKPGSAPRLLISGATSLETGVPSRFSGSGSGKDYTLSITSLQTEDVATYYCQQFWSAPYTFGGGTKLEIK
-25.6 | 0.17 | 2.2e-05 | 130000 | 0.47 | 0.36 | 170000 | 11K2 scFv mutein L-N31R (scFv, V domains shown, PDB 2BDN heavy chain; PDB 2BDN light chain) with the stated change; also called L-D31R (printed once in the results)) VH: EVQLQQSGAELVKAGASVKLSCPASGLNIKDTYMHWVKQRPEQGLEWIGRIDPANGNTKFDPKFQGKATITADTSSNTAYLQLSSLTSEDTAVYYCARGVFGFFDYWGQGTTLTVSS VL: DIQMTQSSSSFSVSLGDRVTITCKATEDIYRRLAWYQQKPGSAPRLLISGATSLETGVPSRFSGSGSGKDYTLSITSLQTEDVATYYCQQFWSAPYTFGGGTKLEIK
 | 8.5 | 0.0019 | 220000 |  |  |  | 11K2 scFv mutein H-N28Q (scFv, V domains shown, PDB 2BDN heavy chain) with the stated change; PDB 2BDN light chain)) VH: EVQLQQSGAELVKAGASVKLSCPASGLQIKDTYMHWVKQRPEQGLEWIGRIDPANGNTKFDPKFQGKATITADTSSNTAYLQLSSLTSEDTAVYYCARGVFGFFDYWGQGTTLTVSS VL: DIQMTQSSSSFSVSLGDRVTITCKATEDIYNRLAWYQQKPGSAPRLLISGATSLETGVPSRFSGSGSGKDYTLSITSLQTEDVATYYCQQFWSAPYTFGGGTKLEIK
-15.1 | 0.19 | 1.4e-05 | 73000 |  |  |  | 11K2 scFv mutein L-S53E (scFv, V domains shown, PDB 2BDN heavy chain; PDB 2BDN light chain) with the stated change) VH: EVQLQQSGAELVKAGASVKLSCPASGLNIKDTYMHWVKQRPEQGLEWIGRIDPANGNTKFDPKFQGKATITADTSSNTAYLQLSSLTSEDTAVYYCARGVFGFFDYWGQGTTLTVSS VL: DIQMTQSSSSFSVSLGDRVTITCKATEDIYNRLAWYQQKPGSAPRLLISGATELETGVPSRFSGSGSGKDYTLSITSLQTEDVATYYCQQFWSAPYTFGGGTKLEIK
 | 3.5 | 0.00039 | 110000 |  |  |  | 11K2 scFv mutein H-L27K (scFv, V domains shown, PDB 2BDN heavy chain) with the stated change; PDB 2BDN light chain)) VH: EVQLQQSGAELVKAGASVKLSCPASGKNIKDTYMHWVKQRPEQGLEWIGRIDPANGNTKFDPKFQGKATITADTSSNTAYLQLSSLTSEDTAVYYCARGVFGFFDYWGQGTTLTVSS VL: DIQMTQSSSSFSVSLGDRVTITCKATEDIYNRLAWYQQKPGSAPRLLISGATSLETGVPSRFSGSGSGKDYTLSITSLQTEDVATYYCQQFWSAPYTFGGGTKLEIK
 | 290 | 0.098 | 340000 |  |  |  | 11K2 scFv mutein L-N31K (scFv, V domains shown, PDB 2BDN heavy chain; PDB 2BDN light chain) with the stated change; also called L-D31K (printed once in the results)) VH: EVQLQQSGAELVKAGASVKLSCPASGLNIKDTYMHWVKQRPEQGLEWIGRIDPANGNTKFDPKFQGKATITADTSSNTAYLQLSSLTSEDTAVYYCARGVFGFFDYWGQGTTLTVSS VL: DIQMTQSSSSFSVSLGDRVTITCKATEDIYKRLAWYQQKPGSAPRLLISGATSLETGVPSRFSGSGSGKDYTLSITSLQTEDVATYYCQQFWSAPYTFGGGTKLEIK
-13.3 | 0.61 | 5.5e-05 | 90000 |  |  |  | 11K2 scFv mutein L-S53D (scFv, V domains shown, PDB 2BDN heavy chain; PDB 2BDN light chain) with the stated change) VH: EVQLQQSGAELVKAGASVKLSCPASGLNIKDTYMHWVKQRPEQGLEWIGRIDPANGNTKFDPKFQGKATITADTSSNTAYLQLSSLTSEDTAVYYCARGVFGFFDYWGQGTTLTVSS VL: DIQMTQSSSSFSVSLGDRVTITCKATEDIYNRLAWYQQKPGSAPRLLISGATDLETGVPSRFSGSGSGKDYTLSITSLQTEDVATYYCQQFWSAPYTFGGGTKLEIK
 | 2.4 | 0.00033 | 140000 |  |  |  | 11K2 scFv mutein H-L27R (scFv, V domains shown, PDB 2BDN heavy chain) with the stated change; PDB 2BDN light chain)) VH: EVQLQQSGAELVKAGASVKLSCPASGRNIKDTYMHWVKQRPEQGLEWIGRIDPANGNTKFDPKFQGKATITADTSSNTAYLQLSSLTSEDTAVYYCARGVFGFFDYWGQGTTLTVSS VL: DIQMTQSSSSFSVSLGDRVTITCKATEDIYNRLAWYQQKPGSAPRLLISGATSLETGVPSRFSGSGSGKDYTLSITSLQTEDVATYYCQQFWSAPYTFGGGTKLEIK
-11.7 | 0.39 | 8.6e-05 | 220000 |  |  |  | 11K2 scFv mutein L-T56D (scFv, V domains shown, PDB 2BDN heavy chain; PDB 2BDN light chain) with the stated change) VH: EVQLQQSGAELVKAGASVKLSCPASGLNIKDTYMHWVKQRPEQGLEWIGRIDPANGNTKFDPKFQGKATITADTSSNTAYLQLSSLTSEDTAVYYCARGVFGFFDYWGQGTTLTVSS VL: DIQMTQSSSSFSVSLGDRVTITCKATEDIYNRLAWYQQKPGSAPRLLISGATSLEDGVPSRFSGSGSGKDYTLSITSLQTEDVATYYCQQFWSAPYTFGGGTKLEIK
